± gives the standard deviation of the averaged measurements.
The sequences below were run on ATP (assay: switch fluorescence ratio, 500 uM ATP over buffer (Cy3 cluster intensity, sum of 5 cycles each) (fold (ratio)); higher = stronger signal-on switching upon ATP binding; sequences stand for … in TCGTCGGCAGCGTCAGATGTGTATAAGAGACAGTTTTTTTTTTTTTTTTTTTTTTTTT…TC). Conditions: aptamer strand: ATP DNA aptamer (quencher-CACCTGGGGGAGTATTGCGGAGGAAGG + anchor), 100 nM annealed; ATP concentration: 500 uM.
In short: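 Five buffer/ATP imaging cycles were run on Cy3-labelled switching-strand clusters on a modified Illumina MiSeq flow-cell, with NaOH stripping and re-annealing between cycles. In each cycle, clusters annealed to 100 nM quencher-labelled ATP aptamer were imaged in selection buffer, then after 15 min with 500 uM ATP at 22 °C. Per cluster, the fluorescence ratio is summed target-cycle over summed buffer-cycle Cy3 intensity, averaged per switch-domain sequence. Only clusters within 100-1000 RFU were kept.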
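Further: ATP exposure 15 min at 22 °C before imaging.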

Row | Sequence | switch fluorescence ratio
1 | AGCGTCAACG | 0.954 ± 0.015
2 | CTGTCGGGCG | 1.02 ± 0.035
3 | GTTCCAGAGG | 1.03 ± 0.011
4 | ATATTGGGGT | 1.01 ± 0.019
5 | CGGGTATTGC | 1.03 ± 0.011
6 | TTTTGACGCT | 0.977 ± 0.012
7 | AGGGTGTGCA | 0.999 ± 0.049
8 | AGGGGGGAAC | 1.01 ± 0.024
9 | AGATAAAATT | 0.98 ± 0.056
10 | TTGATATTTT | 1.04 ± 0.096
11 | GGGCATGAAT | 0.965 ± 0.016
12 | TGAAAAGTTG | 0.987 ± 0.1
13 | GCTGTGGTT | 0.9376 ± 0.00097
14 | GGATGCATTG | 0.972 ± 0.011
15 | GACAGATGGT | 1.01 ± 0.019
16 | TAATGGAAAT | 0.979 ± 0.022
17 | CTCGTCCCCG | 0.994 ± 0.06
18 | GACTGGGCAG | 1.01 ± 0.011
19 | TCGGGCATAG | 1.06 ± 0.046
20 | CACGGGGTCG | 1.036 ± 0.0027
21 | GAGAGGGTCA | 0.98 ± 0.025
22 | TCCAAAGAGA | 0.97 ± 0.039
23 | AAGGTATTAA | 1 ± 0.036
24 | CCGATTAAAT | 1.44 ± 0.1
25 | GAAGGGCGTT | 0.98247 ± 0.00082
26 | CAATGGTTCT | 0.993 ± 0.036

Row | Sequence | switch fluorescence ratio
27 | AAGGTTAGTT | 1.003 ± 0.0083
28 | GGCGTAGTGC | 1.02 ± 0.016
29 | TCGCTTTT | 1.02 ± 0.02
30 | TTTCAGACAC | 1.02 ± 0.011
31 | ATAAATTAGT | 0.998 ± 0.018
32 | GGGGGGAGCA | 0.992 ± 0.018
33 | CGGGGCCTAG | 1.01 ± 0.058
34 | GTCTTCATGG | 0.989 ± 0.02
35 | TTTCGAAGGT | 0.987 ± 0.019
36 | ATCTGCCGGT | 0.981 ± 0.017
37 | TAAACTGCGA | 1.07 ± 0.054
38 | ATAATGTCGA | 1.02 ± 0.026
39 | TCCAAGTGTG | 1.03 ± 0.021
40 | TGTTTGGTTA | 0.995 ± 0.017
41 | GATGTCGGTC | 0.9825 ± 0.0039
42 | AAAAAGGGCG | 0.989 ± 0.02
43 | TCACTTAATA | 0.994 ± 0.014
44 | TTGATAAAGT | 0.997 ± 0.0043
45 | ATCGATGAGC | 1.006 ± 0.004
46 | TAGCTGTTGT | 0.993 ± 0.027
47 | GGTCGAGTGG | 0.988 ± 0.0032
48 | GACTGGGGAC | 1.01 ± 0.012
49 | AGTATCGTGC | 0.9968 ± 0.0098
50 | GGGGTTATTC | 0.986 ± 0.026
51 | TAATGGGGCG | 0.997 ± 0.025
52 | CGGGCTGAAT | 0.987 ± 0.025

Row | Sequence | switch fluorescence ratio
53 | CACTGATGCC | 1.04 ± 0.019
54 | TTCCAAGGGA | 1 ± 0.029
55 | CGTCCCAGCT | 1.12 ± 0.018
56 | GATGTTCGAG | 0.991 ± 0.011
57 | TGGGATCCGC | 1.03 ± 0.056
58 | CGGGATCATT | 0.958 ± 0.017
59 | GCGCATGGTA | 1.02 ± 0.026
60 | CCTGTCAGGC | 1.04 ± 0.026
61 | AAGGTGAATC | 1.04 ± 0.019
62 | TTTTTGGCGG | 0.978 ± 0.038
63 | ATTAAATTCG | 1 ± 0.017
64 | GCTTAGGATT | 1.01 ± 0.033
65 | TTAAGGAGCG | 1.04 ± 0.016
66 | GTGATTTTAT | 0.969 ± 0.028
67 | CGAGCTTATC | 1.2 ± 0.056
68 | TCCAACTCCA | 1.11 ± 0.0039
69 | AATTTGGGGT | 0.995 ± 0.035
70 | TATCGCCCTC | 1.07 ± 0.011
71 | CATGTCAAGA | 1.01 ± 0.036
72 | CTTCTAGGCA | 1.04 ± 0.032
73 | GGGTGAGATC | 1.02 ± 0.012
74 | GGCTGGACGG | 1.01 ± 0.011
75 | TTTGGTTGT | 0.972 ± 0.013
76 | CGTGATGAGG | 0.989 ± 0.028
77 | AGTGCGCATG | 1.01 ± 0.032
78 | TTTGAAAACT | 0.995 ± 0.024

Row | Sequence | switch fluorescence ratio
79 | TGTTAGTTCT | 1.02 ± 0.0089
80 | GCGATCGGTT | 1.01 ± 0.049
81 | CAAGTCAAAG | 0.996 ± 0.039
82 | TGAGGACAGT | 1 ± 0.018
83 | TAGGGGAAAT | 0.994 ± 0.024
84 | ATTATCTAAT | 1 ± 0.017
85 | TATCATGGGA | 0.9982 ± 0.0087
86 | AGGACGAGCA | 1.12 ± 0.015
87 | CTTAGCTATT | 1.019 ± 0.0077
88 | GCGAGGGTCG | 1.01 ± 0.043
89 | GTATGCGTTG | 0.989 ± 0.056
90 | TGTAGAGGGT | 0.976 ± 0.029
91 | CGATTTGAGG | 0.9967 ± 0.0079
92 | ATTTAATCGC | 1.01 ± 0.011
93 | CCGGGGATGT | 1.05 ± 0.04
94 | ATAGATGAGT | 1.012 ± 0.0048
95 | GAGACATCGT | 0.986 ± 0.018
96 | CGGATCAGAA | 0.9956 ± 0.001
97 | AATGGCAGTG | 1 ± 0.048
98 | AACGAAACTT | 1.123 ± 0.0042
99 | ATGCCCAGGG | 1.61 ± 0.04
100 | ACCTCAGCTT | 1.48 ± 0.021
101 | GAGGAGGGAC | 0.989 ± 0.05
102 | GCGTCGCTTT | 0.952 ± 0.046
103 | AACATGGAGG | 0.968 ± 0.031
104 | CCCATTGTCG | 1.01 ± 0.064

Row | Sequence | switch fluorescence ratio
105 | AAATGGCCAT | 1.01 ± 0.013
106 | GGGTCATAGT | 1.012 ± 0.0094
107 | GTTGATAGGA | 0.988 ± 0.03
108 | TTTTATTATC | 0.9986 ± 0.0079
109 | TTTGCACCAT | 1.03 ± 0.017
110 | CGGAGATACG | 1.02 ± 0.029
111 | GTGTGAGTAG | 1.02 ± 0.039
112 | CCGTTGTTTG | 0.979 ± 0.011
113 | ATTGGAAGAC | 1.06 ± 0.12
114 | TTTGAGTAAA | 1.01 ± 0.019
115 | GGGATAGATC | 1.05 ± 0.016
116 | TGCAGGGCGC | 1.04 ± 0.028
117 | GCGTATGCCC | 1.019 ± 0.0062
118 | TTATATTCTT | 0.9964 ± 0.0042
119 | CGGGGCTCCT | 0.995 ± 0.036
120 | GGTCAGAAGG | 0.996 ± 0.026
121 | ATGTCAGGAA | 1.02 ± 0.041
122 | ATGAAAAAAG | 0.993 ± 0.016
123 | GCTTCTGAGG | 1.07 ± 0.018
124 | ATAACATTAG | 0.9984 ± 0.0069
125 | CGTAGAGGGG | 0.9858 ± 0.0073
126 | TGGGGAAATG | 0.997 ± 0.029
127 | ACAAGATTTT | 0.9788 ± 0.0046
128 | CAGTTCCCGC | 1.16 ± 0.055
129 | TCGTGTGTTC | 1.022 ± 0.0047
130 | CGGGTAATCT | 1.5 ± 0.61

Row | Sequence | switch fluorescence ratio
131 | GGTAGATTCG | 0.994 ± 0.027
132 | AGGGGGTGGG | 0.989 ± 0.02
133 | TTGTATATGG | 1.05 ± 0.022
134 | GGGGGAGGGA | 0.997 ± 0.04
135 | GGCCGATCAT | 1.02 ± 0.04
136 | ACCTTTTAGG | 0.965 ± 0.036
137 | AAAAACCTCG | 1.05 ± 0.013
138 | CATTGAGTGC | 1.034 ± 0.0017
139 | GACCGAAAGT | 0.998 ± 0.01
140 | TCCGTGTGGT | 1.07 ± 0.051
141 | TTGGCATATG | 1.07 ± 0.085
142 | GGCGGGGTCG | 1.01 ± 0.038
143 | GTCATCAGGT | 1.008 ± 0.0058
144 | TATTGGGGGT | 1.01 ± 0.044
145 | TTGTTCGATG | 0.99 ± 0.025
146 | CAGGTCGACG | 1.05 ± 0.032
147 | GGGCAGAAAG | 1.01 ± 0.075
148 | CGTAATATTA | 1.07 ± 0.01
149 | GTAAGGGGCG | 1.02 ± 0.035
150 | AGGGTAAACG | 0.986 ± 0.024
151 | TAACCACCGG | 1.03 ± 0.011
152 | GATTTGGGCG | 1.038 ± 0.0054
153 | TCTTTAAGGT | 1.04 ± 0.023

Reference: the supplement of paper PMC10126150
